Tests used:
[1] = target: T1, GST (UniProt P08515 1-218 = GST); assay: GST pull-down on glutathione resin of in vitro translated 35S-labeled protein, autoradiography [panel B]
T1 construct: also called gluthatione-S-transferase; GST alone
Procedure: (§1) Cells were then centrifuged at 10000 g for 15 min and supernatants were incubated for 2 h at 4° C. with gluthatione Sepharose 4B resin (Amersham Pharmacia Biotech). The protein-bound resin (30 μl) was washed with GST buffer and incubated overnight at 4° C. in the presence of 5 μl of ³⁵S-labeled in vitro-translated products. Labeled proteins were prepared from pcDNA3 constructs by in vitro transcription and translation in the presence of ³⁵S-methionine using T7-coupled transcription/translation TNT kit according to the manufacturer's instructions (Promega, Madison, Wis.). Samples of the protein-bound resins were washed three times in GST buffer, boiled in sodium dodecyl sulfate (SDS) Laemmli sample buffer and fractionated by electrophoresis on an SDS-polyacrylamide gel. Proteins were then visualized by autoradiography.

[2] = target: T2, RICK (UniProt O43353 1-540, limits assumed, 35S label in the in vitro assay); assay: restated from Example 3; construct not named
T2 construct: also called 35S-labeled RICK; RIP2
T2 sequence (O43353 whole entry): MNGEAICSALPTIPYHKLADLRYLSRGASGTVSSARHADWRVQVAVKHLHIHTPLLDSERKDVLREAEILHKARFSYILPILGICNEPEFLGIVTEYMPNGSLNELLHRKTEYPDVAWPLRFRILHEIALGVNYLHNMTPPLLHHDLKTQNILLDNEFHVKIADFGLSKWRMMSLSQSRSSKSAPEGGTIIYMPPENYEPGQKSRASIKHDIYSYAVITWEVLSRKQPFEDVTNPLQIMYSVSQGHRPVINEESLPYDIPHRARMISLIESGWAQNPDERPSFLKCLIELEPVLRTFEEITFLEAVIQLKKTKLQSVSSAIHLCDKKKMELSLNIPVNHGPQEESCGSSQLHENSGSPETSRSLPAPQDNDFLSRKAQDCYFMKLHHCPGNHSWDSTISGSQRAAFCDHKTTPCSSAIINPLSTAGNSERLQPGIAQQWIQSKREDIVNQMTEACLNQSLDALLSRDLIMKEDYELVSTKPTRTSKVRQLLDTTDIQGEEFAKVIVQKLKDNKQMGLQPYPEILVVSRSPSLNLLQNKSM

[3] = target: T3, pro-caspase-2 (UniProt P42575 1-452, limits assumed); assay: GST pull-down in vitro or co-immunoprecipitation from 293 T cells (data not shown)
T3 sequence (looked up): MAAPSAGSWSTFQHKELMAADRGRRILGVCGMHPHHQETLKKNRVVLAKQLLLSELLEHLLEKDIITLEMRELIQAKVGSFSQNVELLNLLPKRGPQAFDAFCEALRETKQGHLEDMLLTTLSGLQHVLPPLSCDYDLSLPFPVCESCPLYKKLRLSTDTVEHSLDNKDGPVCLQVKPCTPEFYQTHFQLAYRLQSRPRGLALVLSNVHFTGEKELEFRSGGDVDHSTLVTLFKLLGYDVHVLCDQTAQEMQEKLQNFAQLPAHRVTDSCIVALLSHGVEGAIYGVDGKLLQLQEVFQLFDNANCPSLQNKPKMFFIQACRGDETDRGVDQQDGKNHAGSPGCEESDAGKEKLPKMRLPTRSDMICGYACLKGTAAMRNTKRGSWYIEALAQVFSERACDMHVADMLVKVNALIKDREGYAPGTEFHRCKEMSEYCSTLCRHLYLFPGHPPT
Procedure: as §1
(§2) Human embryonic kidney 293 T cells, were cultured in […] dishes in Dulbecco modified essential medium (DMEM) supplemented with 10% fetal bovine serum (FBS) and antibiotics (Life Technologies). Cells at 50% confluency, were transiently co-transfected with equal amounts of T7-pcDNA3 and Flag-pCMV2 constructs (total DNA of 10 μg/dish) in OptiMEM using the lipofectamine method according to the manufacturer's recommendations (Life Technologies). Twelve hours after transfection, OptiMEM was replaced with DMEM/10% FBS. Twenty four hours later, cells were lysed in 300 μl of a buffer containing 25 mM tris(hydroxymethylaminomethane), pH 7.6, 150 mM NaCl, 1% nonidet-P40, and PMSF. Samples were centrifuged. One third of the supernatant was put aside to verify by Western blot the expression of the proteins. The remaining 200 μl of supernatant were incubated for 2 h at 4° C. with anti-Flag M5 plus M2 monoclonal antibodies (Ab; Sigma). The immune complexes were precipitated overnight at 4° C. with protein-G Sepharose (Amersham-Pharmacia Biotech), washed extensively and then eluted by boiling in SDS-sample buffer. The eluted proteins were resolved by SDS-PAGE and detected by Western blot analysis with horseradish peroxidase (HRP)-conjugated anti-T7 Ab (Novagen, Madison, Wis.). Bands were then detected using enhanced chemoluminescence kit (Amersham Pharmacia Biotech).

[4] = target: T4, pro-caspase-4 (UniProt P49662 1-377, limits assumed); assay: as above
T4 sequence (looked up): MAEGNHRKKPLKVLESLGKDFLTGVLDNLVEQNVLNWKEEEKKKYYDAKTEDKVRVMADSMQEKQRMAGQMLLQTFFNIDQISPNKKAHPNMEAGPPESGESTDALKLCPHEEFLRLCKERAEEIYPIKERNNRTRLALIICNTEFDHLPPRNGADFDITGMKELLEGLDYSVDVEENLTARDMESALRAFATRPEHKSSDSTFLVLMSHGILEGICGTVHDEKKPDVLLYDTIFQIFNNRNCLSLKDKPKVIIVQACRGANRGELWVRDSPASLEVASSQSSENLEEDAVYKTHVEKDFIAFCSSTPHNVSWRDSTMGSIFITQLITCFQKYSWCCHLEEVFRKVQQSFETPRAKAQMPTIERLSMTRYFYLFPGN
Procedure: as §1, §2

[5] = target: c-IAP2 (UniProt Q13489 1-604, limits assumed); assay: as above
Chain of c-IAP2 (Q13489 whole entry): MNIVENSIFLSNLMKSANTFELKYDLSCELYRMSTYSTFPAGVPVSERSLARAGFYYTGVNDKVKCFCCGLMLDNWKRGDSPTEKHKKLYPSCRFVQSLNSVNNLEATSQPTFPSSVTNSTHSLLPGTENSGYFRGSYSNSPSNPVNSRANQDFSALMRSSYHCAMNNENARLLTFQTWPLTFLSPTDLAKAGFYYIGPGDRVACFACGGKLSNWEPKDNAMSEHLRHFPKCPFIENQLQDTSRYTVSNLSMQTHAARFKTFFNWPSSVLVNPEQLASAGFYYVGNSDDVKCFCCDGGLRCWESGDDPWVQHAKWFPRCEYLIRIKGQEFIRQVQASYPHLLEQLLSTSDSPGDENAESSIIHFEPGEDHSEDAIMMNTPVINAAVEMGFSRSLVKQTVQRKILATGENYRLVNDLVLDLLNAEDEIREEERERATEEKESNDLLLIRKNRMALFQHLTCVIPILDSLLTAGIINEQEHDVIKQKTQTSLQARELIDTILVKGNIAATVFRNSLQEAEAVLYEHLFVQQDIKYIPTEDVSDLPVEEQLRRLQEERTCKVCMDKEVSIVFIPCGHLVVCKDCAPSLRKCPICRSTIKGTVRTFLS
Procedure: as §1, §2

[6] = target: T5, c-CLAP (human, UniProt O95999 1-233, limits assumed); assay: as above
T5 sequence (looked up): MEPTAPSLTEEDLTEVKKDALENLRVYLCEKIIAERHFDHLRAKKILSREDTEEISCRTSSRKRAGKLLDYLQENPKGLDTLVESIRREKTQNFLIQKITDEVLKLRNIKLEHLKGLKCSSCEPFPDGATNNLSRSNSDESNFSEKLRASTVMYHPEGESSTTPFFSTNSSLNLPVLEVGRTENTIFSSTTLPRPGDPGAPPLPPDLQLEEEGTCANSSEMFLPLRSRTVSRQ
Procedure: as §1, §2

[7] = target: T6, Apaf-1 (human, UniProt O14727 1-1248, limits assumed); assay: as above
T6 sequence (looked up): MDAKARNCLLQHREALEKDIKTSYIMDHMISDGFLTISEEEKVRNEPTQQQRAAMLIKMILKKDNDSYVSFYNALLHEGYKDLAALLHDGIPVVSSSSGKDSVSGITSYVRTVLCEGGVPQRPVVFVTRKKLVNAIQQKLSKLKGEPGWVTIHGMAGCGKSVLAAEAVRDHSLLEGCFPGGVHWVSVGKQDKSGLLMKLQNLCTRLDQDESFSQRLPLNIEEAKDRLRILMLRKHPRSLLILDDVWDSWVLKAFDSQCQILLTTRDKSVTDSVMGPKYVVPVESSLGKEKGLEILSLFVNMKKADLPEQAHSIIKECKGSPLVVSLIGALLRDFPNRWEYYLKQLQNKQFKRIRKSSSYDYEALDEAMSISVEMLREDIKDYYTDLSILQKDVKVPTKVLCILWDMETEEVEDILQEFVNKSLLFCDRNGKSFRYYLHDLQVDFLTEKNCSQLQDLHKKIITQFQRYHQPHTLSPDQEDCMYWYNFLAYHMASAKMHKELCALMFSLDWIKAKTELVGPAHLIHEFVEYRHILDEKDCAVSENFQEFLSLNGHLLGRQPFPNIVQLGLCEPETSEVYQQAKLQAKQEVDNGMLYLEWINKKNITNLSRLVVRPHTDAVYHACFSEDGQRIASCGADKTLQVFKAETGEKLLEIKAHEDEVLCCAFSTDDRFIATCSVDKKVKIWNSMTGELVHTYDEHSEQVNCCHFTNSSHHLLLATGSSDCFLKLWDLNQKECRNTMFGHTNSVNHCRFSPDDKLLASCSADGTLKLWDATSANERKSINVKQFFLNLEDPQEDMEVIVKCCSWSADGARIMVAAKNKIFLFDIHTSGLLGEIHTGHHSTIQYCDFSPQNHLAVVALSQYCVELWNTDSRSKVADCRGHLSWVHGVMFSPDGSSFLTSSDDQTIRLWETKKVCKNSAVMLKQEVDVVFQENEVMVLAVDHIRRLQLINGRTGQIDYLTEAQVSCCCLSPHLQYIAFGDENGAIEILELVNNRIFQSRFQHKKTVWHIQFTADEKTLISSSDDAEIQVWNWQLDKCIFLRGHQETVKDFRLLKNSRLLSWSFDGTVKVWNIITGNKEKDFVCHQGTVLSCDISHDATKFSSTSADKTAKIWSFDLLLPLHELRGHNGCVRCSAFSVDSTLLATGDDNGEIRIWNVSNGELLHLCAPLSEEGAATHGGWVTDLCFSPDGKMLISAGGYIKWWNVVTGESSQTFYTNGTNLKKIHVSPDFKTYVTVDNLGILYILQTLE
Procedure: as §1, §2

[8] = target: T7, CRADD (human, UniProt P78560 1-199, limits assumed); assay: GST pull-down in vitro or co-immunoprecipitation from 293 T cells (T7-CRADD with Flag-Pseudo-ICE, Panel C of FIG. 2)
T7 construct: also called T7-tagged CRADD
T7 sequence (P78560 whole entry): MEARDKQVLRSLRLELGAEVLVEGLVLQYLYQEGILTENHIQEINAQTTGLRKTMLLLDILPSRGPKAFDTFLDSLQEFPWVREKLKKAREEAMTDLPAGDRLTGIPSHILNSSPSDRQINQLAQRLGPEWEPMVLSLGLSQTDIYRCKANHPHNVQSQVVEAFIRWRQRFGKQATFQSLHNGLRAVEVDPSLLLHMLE
Procedure: as §2, with “buffer.” for “buffer. The eluted proteins were resolved by SDS-PAGE and detected by Western blot analysis with horseradish peroxidase (HRP)-conjugated anti-T7 Ab (Novagen, Madison, Wis.). Bands were then detected using enhanced chemoluminescence kit (Amersham Pharmacia Biotech).”

[9] = target: T7, CRADD; assay: GST pull-down in vitro or co-immunoprecipitation from 293 T cells (T7-CRADD with Flag-ICE-Like, Panel C of FIG. 2)
Procedure: as §2, with “buffer.” for “buffer. The eluted proteins were resolved by SDS-PAGE and detected by Western blot analysis with horseradish peroxidase (HRP)-conjugated anti-T7 Ab (Novagen, Madison, Wis.). Bands were then detected using enhanced chemoluminescence kit (Amersham Pharmacia Biotech).”

[10] = target: T2, RICK; assay: GST pull-down of 35S-labelled RICK (data not shown)
Procedure: as §1

[11] = target: T8, Flag-tagged RICK (UniProt O43353 1-540); assay: co-immunoprecipitation from 293 T cells cotransfected with Flag-RICK, T7-Casp1C/A and rising amounts of T7-ICE-Like: IP anti-Flag, western blot anti-T7 [panel B]
T8 construct: Expressed in 293 T cells, precipitated with anti-Flag antibodies; also called Flag-RICK; RIP2; not shown: Flag tag
T8 sequence (O43353 whole entry): as the sequence (O43353 whole entry) above
Procedure: as §2

T1 sequence (P08515 whole entry): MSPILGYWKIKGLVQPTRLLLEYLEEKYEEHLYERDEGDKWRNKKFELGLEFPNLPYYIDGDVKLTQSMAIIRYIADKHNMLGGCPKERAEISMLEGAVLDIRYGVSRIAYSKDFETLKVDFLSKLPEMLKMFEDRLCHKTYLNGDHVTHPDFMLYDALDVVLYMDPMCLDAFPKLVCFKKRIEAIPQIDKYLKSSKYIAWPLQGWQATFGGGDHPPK

B1: Pseudo-ICE (other)
chain: MADKVLKEKRKLFIHSMGEGTINGLLDELLQTRVLNQEEMEKVKRENATVMDKTRALIDSVIPKGAQACQICITYICEEDSYLAETLGLSAGPIPGN
modifications: 35S-methionine label in the in vitro assay
notes: Used for the 35S-labelled in vitro translated product (made from a pcDNA3 construct); also called 35S-labeled Pseudo-ICE; in vitro translated Pseudo-ICE
binding result [1]: no binding
binding result [2]: binds
binding result [3]: no binding
binding result [4]: no binding
binding result [5]: no binding
binding result [6]: no binding
binding result [7]: no binding
binding result [8]: no binding

B2: ICE-Like (other)
chain: MADQLLRKKRRIFIHSVGAGTINALLDCLLEDEVISQEDMNKVRDENDTVMDKARVLIDLVTGKGPKSCCKFIKHLCEEDPQLASKMGLH
modifications: 35S-methionine label in the in vitro assay
notes: Used for the 35S-labelled in vitro translated product (made from a pcDNA3 construct); also called 35S-labeled ICE-Like; in vitro translated ICE-Like
binding result [1]: no binding
binding result [2]: no binding
binding result [3]: no binding
binding result [4]: no binding
binding result [5]: no binding
binding result [6]: no binding
binding result [7]: no binding
binding result [9]: no binding

B3: GST-conjugated ICE-Like (other)
chain: MADQLLRKKRRIFIHSVGAGTINALLDCLLEDEVISQEDMNKVRDENDTVMDKARVLIDLVTGKGPKSCCKFIKHLCEEDPQLASKMGLH
notes: GST is put first by the usual make of pGEX vectors; also called ICE-Like-GST; GST-ICE-Like; not shown: glutathione-S-transferase (GST) from vector pGEX-5X 3
binding result [10]: no binding

B4: T7-tagged ICE-Like (other, not shown: small tags and cut ends)
chain: MADQLLRKKRRIFIHSVGAGTINALLDCLLEDEVISQEDMNKVRDENDTVMDKARVLIDLVTGKGPKSCCKFIKHLCEEDPQLASKMGLH
notes: Expressed from pcDNA3 in 293 T cells, or from pMSCVneo retroviral vector in THP-1 cells; also called T7-ICE-Like
binding result [11]: no binding
